Measured values taken from IntAct's records for PubMed 31696227.

B1: Transcription factor ATOH7 (Homo sapiens), Q8N100 (parent)
chain: MKSCKPSGPPAGARVAPPCAGGTECAGTCAGAGRLESAARRRLAANARERRRMQGLNTAFDRLRRVVPQWGQDKKLSKYETLQMALSYIMALTRILAEAERFGSERDWVGLHCEHFGRDHYLPFPGAKLPGESELYSQRLFGFQPEPFQMAT
partner: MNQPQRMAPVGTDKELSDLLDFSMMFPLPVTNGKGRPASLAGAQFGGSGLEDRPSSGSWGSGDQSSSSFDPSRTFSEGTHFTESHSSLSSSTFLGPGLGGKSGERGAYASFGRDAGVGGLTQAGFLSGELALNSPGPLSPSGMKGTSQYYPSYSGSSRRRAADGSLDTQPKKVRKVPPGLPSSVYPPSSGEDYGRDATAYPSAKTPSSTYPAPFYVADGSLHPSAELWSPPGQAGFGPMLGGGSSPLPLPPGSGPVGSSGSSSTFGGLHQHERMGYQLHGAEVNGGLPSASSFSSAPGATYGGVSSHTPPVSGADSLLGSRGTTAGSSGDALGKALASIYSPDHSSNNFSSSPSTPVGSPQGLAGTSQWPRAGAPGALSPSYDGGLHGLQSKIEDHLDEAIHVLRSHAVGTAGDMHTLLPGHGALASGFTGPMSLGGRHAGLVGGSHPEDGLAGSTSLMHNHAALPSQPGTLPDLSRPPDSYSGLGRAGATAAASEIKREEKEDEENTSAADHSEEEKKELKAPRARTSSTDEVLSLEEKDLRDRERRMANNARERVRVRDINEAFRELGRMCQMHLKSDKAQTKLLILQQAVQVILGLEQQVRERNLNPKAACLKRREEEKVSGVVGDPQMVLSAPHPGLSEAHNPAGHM

Variants of: B1
Settings: with TCF3, P15923-2

effect of a mutation on the interaction	Variant
disrupting interaction strength	A59V
disrupting interaction strength	A59T
decreasing interaction strength	A59G
disrupting interaction strength	N46H
